Laboratory results published in article PMC11551749.
Where two headings read alike, the source gives them in different places.

Tests used:
[1] = target: hnRNPA1;RPA-E240K heterotrimer (human;human, UniProt P09651;P27694;P15927;P35244 1-372;1-616;1-270;1-121, |E240K); experiment: bulk FRET
hnRNPA1 [2] = target: T1, hnRNPA1 (human, UniProt P09651 1-372); experiment: bulk FRET
[3] = target: hnRNPA1;RPA heterotrimer (RPA1/RPA2/RPA3) (human;human, UniProt P09651;P27694;P15927;P35244 1-372;1-616;1-270;1-121, |); experiment: bulk FRET
hnRNPA1;RPA heterotrimer (RPA1/RPA2/RPA3), sequence (P09651 whole entry, chain 1 of 4): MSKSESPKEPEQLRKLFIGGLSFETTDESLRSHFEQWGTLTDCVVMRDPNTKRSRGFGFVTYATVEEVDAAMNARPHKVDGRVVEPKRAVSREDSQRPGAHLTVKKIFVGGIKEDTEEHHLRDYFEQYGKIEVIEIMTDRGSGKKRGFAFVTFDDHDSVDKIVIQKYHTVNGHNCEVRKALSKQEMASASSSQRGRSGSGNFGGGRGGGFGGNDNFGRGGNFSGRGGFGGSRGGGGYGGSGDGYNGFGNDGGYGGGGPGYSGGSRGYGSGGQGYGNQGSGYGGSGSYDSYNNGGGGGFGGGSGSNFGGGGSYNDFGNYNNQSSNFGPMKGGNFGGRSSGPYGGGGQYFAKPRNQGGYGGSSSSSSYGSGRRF
hnRNPA1;RPA heterotrimer (RPA1/RPA2/RPA3), sequence (P27694 whole entry, chain 2 of 4): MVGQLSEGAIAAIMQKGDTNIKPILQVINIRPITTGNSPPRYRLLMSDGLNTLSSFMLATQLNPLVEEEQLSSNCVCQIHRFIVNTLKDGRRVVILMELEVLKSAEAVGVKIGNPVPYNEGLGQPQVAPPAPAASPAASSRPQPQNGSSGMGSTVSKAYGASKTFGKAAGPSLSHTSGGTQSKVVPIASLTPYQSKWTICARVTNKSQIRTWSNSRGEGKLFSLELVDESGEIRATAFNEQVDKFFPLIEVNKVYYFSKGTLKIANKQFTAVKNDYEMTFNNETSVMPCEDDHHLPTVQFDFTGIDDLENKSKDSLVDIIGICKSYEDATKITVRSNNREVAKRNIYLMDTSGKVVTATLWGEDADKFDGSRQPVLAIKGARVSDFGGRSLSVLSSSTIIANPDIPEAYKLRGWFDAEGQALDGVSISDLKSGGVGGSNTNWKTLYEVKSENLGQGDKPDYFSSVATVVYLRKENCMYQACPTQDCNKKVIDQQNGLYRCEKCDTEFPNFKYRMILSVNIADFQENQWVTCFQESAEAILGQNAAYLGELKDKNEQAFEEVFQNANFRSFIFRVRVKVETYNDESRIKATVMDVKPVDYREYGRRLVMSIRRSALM
hnRNPA1;RPA heterotrimer (RPA1/RPA2/RPA3), sequence (P15927 whole entry, chain 3 of 4): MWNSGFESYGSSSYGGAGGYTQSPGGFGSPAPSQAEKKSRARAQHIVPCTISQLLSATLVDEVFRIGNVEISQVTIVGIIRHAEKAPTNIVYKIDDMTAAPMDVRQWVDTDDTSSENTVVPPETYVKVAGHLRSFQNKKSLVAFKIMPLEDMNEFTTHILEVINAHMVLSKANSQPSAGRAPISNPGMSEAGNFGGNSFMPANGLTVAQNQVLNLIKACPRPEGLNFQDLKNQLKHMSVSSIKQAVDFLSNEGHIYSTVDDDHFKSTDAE
hnRNPA1;RPA heterotrimer (RPA1/RPA2/RPA3), sequence (P35244 whole entry, chain 4 of 4): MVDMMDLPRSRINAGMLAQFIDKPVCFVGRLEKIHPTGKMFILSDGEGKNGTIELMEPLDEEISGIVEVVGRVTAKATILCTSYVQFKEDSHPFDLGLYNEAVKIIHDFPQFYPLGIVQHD

[4] = target: T2, RPA heterotrimer (RPA1/RPA2/RPA3) (human, UniProt P27694;P15927;P35244 1-616;1-270;1-121); experiment: EMSA
T2 sequence (P27694 whole entry, chain 1 of 3): as the sequence (P27694 whole entry, chain 2 of 4) above
T2 sequence (P15927 whole entry, chain 2 of 3): as the sequence (P15927 whole entry, chain 3 of 4) above
T2 sequence (P35244 whole entry, chain 3 of 3): as the sequence (P35244 whole entry, chain 4 of 4) above

hnRNPA1 [5] = target: T1, hnRNPA1; experiment: bulk FRET; remark: listed apart in the source
[6] = target: T2, RPA heterotrimer (RPA1/RPA2/RPA3); experiment: bulk FRET
[7] = target: T2, RPA heterotrimer (RPA1/RPA2/RPA3); experiment: mass photometry
RPA-E240K heterotrimer = RPA-E240K heterotrimer (human, UniProt P27694;P15927;P35244 1-616;1-270;1-121, E240K); experiment: mass photometry
RPA-E240K heterotrimer, sequence (P27694 whole entry E240K, chain 1 of 3): as the sequence (P27694 whole entry, chain 2 of 4) above, with E240K counted along it
RPA-E240K heterotrimer, sequence (P15927 whole entry, chain 2 of 3): as the sequence (P15927 whole entry, chain 3 of 4) above
RPA-E240K heterotrimer, sequence (P35244 whole entry, chain 3 of 3): as the sequence (P35244 whole entry, chain 4 of 4) above

T1 sequence (P09651 whole entry): as the sequence (P09651 whole entry, chain 1 of 4) above
hnRNPA1;RPA-E240K heterotrimer, sequence (P09651 whole entry, chain 1 of 4): as above
hnRNPA1;RPA-E240K heterotrimer, sequence (P27694 whole entry E240K, chain 2 of 4): as the sequence (P27694 whole entry, chain 2 of 4) above, with E240K counted along it
hnRNPA1;RPA-E240K heterotrimer, sequence (P15927 whole entry, chain 3 of 4): as the sequence (P15927 whole entry, chain 3 of 4) above
hnRNPA1;RPA-E240K heterotrimer, sequence (P35244 whole entry, chain 4 of 4): as the sequence (P35244 whole entry, chain 4 of 4) above

Binder: TTAGGGTTAGGGTTAGGGTTAGGGTTAGGG (structured_DNA) [h-telG4 (FRET), five telomeric repeats]
- Kd [1]: 0.0759 ± 0.0255 µM
- Kd (hnRNPA1 [2]): 0.0206 ± 0.0035 µM
- Kd [3]: 0.0274 ± 0.0027 µM
- binding result [4]: binds

Binder: TTAGGGTTAGGGTTA (ssDNA) [h-tel-15(FRET)]
- Kd (hnRNPA1 [5]): 0.0735 ± 0.0043 µM

Binder: TTTTTTTTTTTTTTTTTTTTTTTTTTTTTT (ssDNA) [dT30]
- binding result [6]: binds

Binder: AGGGGCGGGCGCTTTAGGAAAAGGGCGGGT (structured_DNA) [BCL-2G4 1245]
- binding result [6]: binds

Binder: TGGGGAGGGTGGGGAGGGTGGGGAAGG (structured_DNA) [PU27G4]
- binding result [6]: binds

Binder: TTAGGGTTAGGGTTAGGGTTAGGGTTAGGG (structured_DNA) [h-telG4 (MP)]
- binding result [7]: binds
- binding result (RPA-E240K heterotrimer): binds
